The supplement of paper PMC9112550, “Optimization of the antimicrobial peptide Bac7 by deep mutational scanning” (BMC Biology, 2022)

System: Escherichia coli TOP10
Assay: shrunken log2 fold change of peptide-encoding DNA abundance (4.5 h post-induction vs induction); higher = less antimicrobial activity (less host growth inhibition)
Conditions: time post-induction: 4.5 h; library: site-saturation at positions 5, 18, 19, 20
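Further: peptides expressed intracellularly from a pBAD plasmid library in pooled LB shake-flask culture, induced with 0.3% L-arabinose, DNA abundance read by NGS, three biological replicates, DESeq2 with apeglm shrinkage.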

Row | Sequence | shrunken log2 fold change
1 | RRIRNRPPRLPRPRPRPQDVPRP | -0.0757
2 | RRIRPRPPRLPRPRPRPYDWPRP | 0.0551
3 | RRIRQRPPRLPRPRPRPSPAPRP | 0.611
4 | RRIRLRPPRLPRPRPRPNDVPRP | -0.111
5 | RRIRSRPPRLPRPRPRPDKFPRP | -0.143
6 | RRIRDRPPRLPRPRPRPGSEPRP | 0.0708
7 | RRIRVRPPRLPRPRPRPAHTPRP | 0.109
8 | RRIRLRPPRLPRPRPRPLEKPRP | -0.0425
9 | RRIRMRPPRLPRPRPRPLCYPRP | -0.0697
10 | RRIRFRPPRLPRPRPRPTFMPRP | -0.444
11 | RRIRMRPPRLPRPRPRPHPPPRP | 1.26
12 | RRIRMRPPRLPRPRPRPPTPPRP | 1.66
13 | RRIRLRPPRLPRPRPRPAGYPRP | -0.0817
14 | RRIRVRPPRLPRPRPRPVFDPRP | -0.079
15 | RRIRFRPPRLPRPRPRPSTCPRP | -0.262
16 | RRIRSRPPRLPRPRPRPKEAPRP | -0.144
17 | RRIRIRPPRLPRPRPRPIDMPRP | -0.0681
18 | RRIRDRPPRLPRPRPRPGFYPRP | 0.00794
19 | RRIRYRPPRLPRPRPRPMPRPRP | 0.0558
20 | RRIRFRPPRLPRPRPRPESFPRP | 0.0272

Row | Sequence | shrunken log2 fold change
21 | RRIRLRPPRLPRPRPRPNCSPRP | 0.121
22 | RRIRHRPPRLPRPRPRPIVVPRP | 0.0062
23 | RRIRNRPPRLPRPRPRPFLEPRP | 0.0329
24 | RRIRCRPPRLPRPRPRPYNTPRP | -0.91
25 | RRIRERPPRLPRPRPRPGDLPRP | -0.0898
26 | RRIRTRPPRLPRPRPRPVHSPRP | -0.0193
27 | RRIRFRPPRLPRPRPRPMKQPRP | -0.0442
28 | RRIRMRPPRLPRPRPRPANRPRP | 0.21
29 | RRIRIRPPRLPRPRPRPIMYPRP | -0.0494
30 | RRIRERPPRLPRPRPRPSQDPRP | -0.137
31 | RRIRGRPPRLPRPRPRPRRIPRP | 0.451
32 | RRIRVRPPRLPRPRPRPHAEPRP | 0.0163
33 | RRIRRRPPRLPRPRPRPHSFPRP | 0.199
34 | RRIRLRPPRLPRPRPRPAFTPRP | 0.238
35 | RRIRWRPPRLPRPRPRPHHAPRP | -0.0735
36 | RRIRPRPPRLPRPRPRPDFKPRP | -0.464
37 | RRIRHRPPRLPRPRPRPWLAPRP | -0.26
38 | RRIRTRPPRLPRPRPRPHVPPRP | -0.374
39 | RRIRDRPPRLPRPRPRPYTYPRP | 0.0218
40 | RRIRFRPPRLPRPRPRPRAWPRP | 0.409

Row | Sequence | shrunken log2 fold change
41 | RRIRGRPPRLPRPRPRPTKYPRP | 0.189
42 | RRIRRRPPRLPRPRPRPKHCPRP | 0.294
43 | RRIRERPPRLPRPRPRPAIFPRP | -0.12
44 | RRIRLRPPRLPRPRPRPFPEPRP | -0.0878
45 | RRIRKRPPRLPRPRPRPTKCPRP | -0.184
46 | RRIRDRPPRLPRPRPRPGDRPRP | -0.00192
47 | RRIRGRPPRLPRPRPRPFLPPRP | -0.148
48 | RRIRQRPPRLPRPRPRPWSAPRP | -0.277
49 | RRIRCRPPRLPRPRPRPPWFPRP | -0.00887
50 | RRIRWRPPRLPRPRPRPCLNPRP | 0.0137
51 | RRIRVRPPRLPRPRPRPQMDPRP | -0.297
52 | RRIRSRPPRLPRPRPRPVGKPRP | -0.0806
53 | RRIRLRPPRLPRPRPRPFFKPRP | -0.169
54 | RRIRVRPPRLPRPRPRPPVMPRP | -0.105
55 | RRIRDRPPRLPRPRPRPVFHPRP | -0.707
56 | RRIRDRPPRLPRPRPRPNTMPRP | -0.167
57 | RRIRWRPPRLPRPRPRPHQGPRP | 0.0993
58 | RRIRWRPPRLPRPRPRPQDHPRP | 0.178
59 | RRIRSRPPRLPRPRPRPYMPPRP | -1.04
60 | RRIRPRPPRLPRPRPRPDGYPRP | -0.246
